Measurements taken from article PMC3799435, “Dissecting the interactions of SERRATE with RNA and DICER-LIKE 1 in Arabidopsis microRNA precursor processing” (Nucleic Acids Research, 2013).

Experiments:
DCL1;SE (His-tagged) = DCL1;SE (His-tagged) (Arabidopsis thaliana;Arabidopsis …, UniProt Q9SP32;Q9ZVD0 1-1909;1-720, |); test: SPR; SE injected on preformed DCL1/RNA complex, 50 mM NaCl; SE:DCL1 2.4:1; SPR (Biacore T100): 20 mM Tris-HCl pH 7.0, 50 or 150 mM NaCl, 2 mM β-ME (0.005% P20 for SE variants); proteins 42-43 nM (Fig 2E), SE 20 nM (Fig 4), 16 nM DCL1 for complex; temperature not stated; conditions: protein: recombinant;recombinant; tags: none (His6-StrepII-SUMOstar removed);N-terminal His6; vector also has inserted myc and Strep-tag II; label: 5'-biotin on strand 1; fork: 40 bp duplex; 20-nt 3' tail of strand 1 and 20-nt 5' tail of strand 2 unpaired; other end blunt
DCL1;SE143-720 = DCL1;SE143-720 (Arabidopsis thaliana;Arabidopsis …, UniProt Q9SP32;Q9ZVD0 1-1909;143-720, |del1-142); test: SPR; SE143-720 injected on preformed DCL1/RNA complex, 50 mM NaCl; SPR (Biacore T100): 20 mM Tris-HCl pH 7.0, 50 or 150 mM NaCl, 2 mM β-ME (0.005% P20 for SE variants); proteins 42-43 nM (Fig 2E), SE 20 nM (Fig 4), 16 nM DCL1 for complex; temperature not stated; conditions: protein: recombinant;recombinant; tags: none (His6-StrepII-SUMOstar removed);N-terminal His6; vector also has inserted myc and Strep-tag II; label: 5'-biotin on strand 1; fork: 40 bp duplex; 20-nt 3' tail of strand 1 and 20-nt 5' tail of strand 2 unpaired; other end blunt
DCL1 = DCL1 (Arabidopsis thaliana, UniProt Q9SP32 1-1909); test: SPR; 50 mM NaCl; SPR (Biacore T100): 20 mM Tris-HCl pH 7.0, 50 or 150 mM NaCl, 2 mM β-ME (0.005% P20 for SE variants); proteins 42-43 nM (Fig 2E), SE 20 nM (Fig 4), 16 nM DCL1 for complex; temperature not stated; conditions: protein: recombinant; tags: none (His6-StrepII-SUMOstar removed); chain copies: 3; label: 5'-biotin on strand 1; fork: 40 bp duplex; 20-nt 3' tail of strand 1 and 20-nt 5' tail of strand 2 unpaired; other end blunt
SE (untagged) = target: T1, SE (untagged) (Arabidopsis thaliana, UniProt Q9ZVD0 1-720); test: SPR; 50 mM NaCl; weaker than DCL1, rapid dissociation; SPR (Biacore T100): 20 mM Tris-HCl pH 7.0, 50 or 150 mM NaCl, 2 mM β-ME (0.005% P20 for SE variants); proteins 42-43 nM (Fig 2E), SE 20 nM (Fig 4), 16 nM DCL1 for complex; temperature not stated; conditions: protein: recombinant; tags: none (His6-StrepII-SUMOstar removed); label: 5'-biotin on strand 1; fork: 40 bp duplex; 20-nt 3' tail of strand 1 and 20-nt 5' tail of strand 2 unpaired; other end blunt
T1 sequence: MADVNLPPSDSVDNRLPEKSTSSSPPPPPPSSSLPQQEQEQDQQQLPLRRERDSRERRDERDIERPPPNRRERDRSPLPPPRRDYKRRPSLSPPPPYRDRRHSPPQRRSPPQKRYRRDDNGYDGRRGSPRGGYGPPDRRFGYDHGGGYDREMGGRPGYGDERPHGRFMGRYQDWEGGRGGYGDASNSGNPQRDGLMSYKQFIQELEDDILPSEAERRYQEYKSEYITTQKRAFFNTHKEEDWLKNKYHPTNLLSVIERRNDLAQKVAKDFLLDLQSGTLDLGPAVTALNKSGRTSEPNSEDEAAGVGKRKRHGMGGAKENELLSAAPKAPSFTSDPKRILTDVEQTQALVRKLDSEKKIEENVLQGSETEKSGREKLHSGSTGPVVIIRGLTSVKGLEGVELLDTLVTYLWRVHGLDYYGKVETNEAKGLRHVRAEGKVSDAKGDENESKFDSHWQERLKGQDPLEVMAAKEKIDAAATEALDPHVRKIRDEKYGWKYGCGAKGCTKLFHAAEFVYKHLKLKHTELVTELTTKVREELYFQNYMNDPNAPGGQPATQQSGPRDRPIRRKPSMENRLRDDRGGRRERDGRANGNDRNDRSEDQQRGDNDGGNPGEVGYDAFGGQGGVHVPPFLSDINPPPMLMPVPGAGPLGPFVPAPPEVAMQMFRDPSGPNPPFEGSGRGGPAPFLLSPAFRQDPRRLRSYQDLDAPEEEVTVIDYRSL

SE143-720 = target: T2, SE143-720 (Arabidopsis thaliana, UniProt Q9ZVD0 143-720, del1-142); test: SPR; 50 mM NaCl, 20 nM protein; SPR (Biacore T100): 20 mM Tris-HCl pH 7.0, 50 or 150 mM NaCl, 2 mM β-ME (0.005% P20 for SE variants); proteins 42-43 nM (Fig 2E), SE 20 nM (Fig 4), 16 nM DCL1 for complex; temperature not stated; conditions: protein: recombinant; tags: N-terminal His6; vector also has inserted myc and Strep-tag II; label: 5'-biotin on strand 1; fork: 40 bp duplex; 20-nt 3' tail of strand 1 and 20-nt 5' tail of strand 2 unpaired; other end blunt
T2 sequence: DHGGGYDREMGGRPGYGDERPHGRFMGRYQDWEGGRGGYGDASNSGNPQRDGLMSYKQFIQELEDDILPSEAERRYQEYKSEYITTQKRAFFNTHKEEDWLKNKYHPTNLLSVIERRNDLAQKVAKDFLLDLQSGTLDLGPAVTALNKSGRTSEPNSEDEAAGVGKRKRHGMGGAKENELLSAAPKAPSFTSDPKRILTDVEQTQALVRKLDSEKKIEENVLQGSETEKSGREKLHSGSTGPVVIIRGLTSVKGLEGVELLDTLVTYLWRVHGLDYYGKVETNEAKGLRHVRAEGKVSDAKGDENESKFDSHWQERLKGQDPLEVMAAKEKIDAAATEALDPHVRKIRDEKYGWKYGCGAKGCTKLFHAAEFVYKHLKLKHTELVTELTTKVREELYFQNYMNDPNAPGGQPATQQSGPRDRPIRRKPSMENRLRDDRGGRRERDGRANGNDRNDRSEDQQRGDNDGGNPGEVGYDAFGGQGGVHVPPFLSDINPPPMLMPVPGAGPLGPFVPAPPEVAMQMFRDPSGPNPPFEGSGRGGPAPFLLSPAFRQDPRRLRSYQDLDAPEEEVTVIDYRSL

Chain of DCL1;SE143-720 (Q9SP32 whole entry, stated change not applied, one chain of several): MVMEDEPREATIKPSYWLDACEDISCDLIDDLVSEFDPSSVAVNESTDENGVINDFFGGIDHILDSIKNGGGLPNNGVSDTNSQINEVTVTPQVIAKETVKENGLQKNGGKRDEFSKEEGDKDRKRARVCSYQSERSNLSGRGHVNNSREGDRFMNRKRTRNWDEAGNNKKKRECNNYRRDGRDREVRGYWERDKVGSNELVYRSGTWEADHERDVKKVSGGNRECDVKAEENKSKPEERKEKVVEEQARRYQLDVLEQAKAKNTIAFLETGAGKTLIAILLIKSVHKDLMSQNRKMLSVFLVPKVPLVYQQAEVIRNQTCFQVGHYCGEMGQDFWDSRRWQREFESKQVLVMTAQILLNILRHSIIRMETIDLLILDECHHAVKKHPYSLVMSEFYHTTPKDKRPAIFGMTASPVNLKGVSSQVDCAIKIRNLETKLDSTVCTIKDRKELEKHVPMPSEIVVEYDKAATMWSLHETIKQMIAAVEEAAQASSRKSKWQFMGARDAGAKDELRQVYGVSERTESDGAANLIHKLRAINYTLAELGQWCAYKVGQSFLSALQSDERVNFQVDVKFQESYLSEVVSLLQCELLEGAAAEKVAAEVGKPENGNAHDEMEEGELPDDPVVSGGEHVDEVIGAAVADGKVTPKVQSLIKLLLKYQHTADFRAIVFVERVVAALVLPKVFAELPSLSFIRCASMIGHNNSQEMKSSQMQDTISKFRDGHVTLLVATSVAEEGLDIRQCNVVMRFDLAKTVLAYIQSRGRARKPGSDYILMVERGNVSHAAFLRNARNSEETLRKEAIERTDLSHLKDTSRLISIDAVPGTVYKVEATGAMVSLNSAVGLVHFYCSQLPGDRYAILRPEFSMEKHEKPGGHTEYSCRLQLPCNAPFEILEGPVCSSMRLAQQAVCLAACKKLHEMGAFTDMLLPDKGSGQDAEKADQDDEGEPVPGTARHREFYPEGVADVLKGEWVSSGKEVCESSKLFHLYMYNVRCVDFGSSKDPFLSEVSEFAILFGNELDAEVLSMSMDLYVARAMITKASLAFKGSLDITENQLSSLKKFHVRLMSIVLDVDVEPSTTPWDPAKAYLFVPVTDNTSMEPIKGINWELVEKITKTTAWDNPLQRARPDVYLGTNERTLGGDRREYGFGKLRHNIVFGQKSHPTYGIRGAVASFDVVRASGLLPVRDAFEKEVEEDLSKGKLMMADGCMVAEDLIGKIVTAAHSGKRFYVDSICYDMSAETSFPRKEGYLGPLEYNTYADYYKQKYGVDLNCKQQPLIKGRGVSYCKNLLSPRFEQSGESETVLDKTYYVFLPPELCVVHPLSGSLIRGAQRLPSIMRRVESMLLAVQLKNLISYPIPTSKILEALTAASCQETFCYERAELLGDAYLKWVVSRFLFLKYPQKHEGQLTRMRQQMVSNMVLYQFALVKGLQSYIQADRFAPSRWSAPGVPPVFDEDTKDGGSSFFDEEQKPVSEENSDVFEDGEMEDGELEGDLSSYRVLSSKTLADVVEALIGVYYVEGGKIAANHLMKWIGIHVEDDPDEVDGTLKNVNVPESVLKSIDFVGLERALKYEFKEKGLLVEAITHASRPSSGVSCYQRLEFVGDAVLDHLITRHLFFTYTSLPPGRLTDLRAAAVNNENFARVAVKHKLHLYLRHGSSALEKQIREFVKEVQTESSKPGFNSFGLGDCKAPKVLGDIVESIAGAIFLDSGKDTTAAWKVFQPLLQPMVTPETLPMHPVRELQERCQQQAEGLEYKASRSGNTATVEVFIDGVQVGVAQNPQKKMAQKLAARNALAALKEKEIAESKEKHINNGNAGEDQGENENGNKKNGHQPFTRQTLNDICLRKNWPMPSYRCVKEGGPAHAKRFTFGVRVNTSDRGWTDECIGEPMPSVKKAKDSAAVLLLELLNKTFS
Chain of DCL1 (Q9SP32 whole entry): as the sequence (Q9SP32 whole entry, stated change not applied, one chain of several) above
Chain of DCL1;SE (His-tagged) (Q9SP32 whole entry, one chain of several): as the sequence (Q9SP32 whole entry, stated change not applied, one chain of several) above

B1: forked-RNA (dsRNA)
RNA 1: CAACCCAAGAUAGAUCAUGCAGGCAGCUUCAUCAGAUGCCGCUCCCUCUUUUUUUCUCUA
RNA 2: GCUCCCUCUUUUUUUCUCUAGGCAUCUGAUGAAGCUGCCUGCAUGAUCUAUCUUGGGUUG
binding result (DCL1;SE (His-tagged)): binds
binding signal (DCL1;SE143-720): 2 fold less RUmax vs wild-type SE
binding result (DCL1): binds
binding result (SE (untagged)): binds
binding signal (SE143-720): 6 fold reduction vs wild-type SE
